Data as given in the supplement of paper PMC6755084.

The sequences below were run on F1*sub RNA substrate (template-directed ligation) (assay: fraction ligated after 30 min (ligated reads / total reads); higher = more ligase activity; sequences stand for … in GAGACCGCAACTGAAAAGTTGT…AGTTCTGCACGTAGAAGCAAAAGGC). Conditions: 42 °C.
In short: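 Ribozyme variants were transcribed with T7 from PCR-amplified oligo-pool templates and gel-purified. Ligated and unligated bands, separated on gel, were reverse transcribed with barcoded primers and sequenced on a MiSeq, with core bases filtered at quality ≥20. Fraction ligated per variant was computed as ligated reads divided by total reads.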

Sequence | fraction ligated
TACACTTGTCGTAAGACACTTGGAGGGTTGA [3d717] | 0.0172
TACCTTGTCGTAAGACACTTTGGAGGGTTGA [3d543] | 0.24
TATCACTTGTGTAAACACTTTGGATGGTTGA [3d1751] | 0.328
TATCACTTGCGTAAGCATTTGGATGGGTTGA [3d1651] | 0.83
TTCACTGTCGTAAGACACTTTGGTGGGTTGA [3d350] | 0.0639
ATCACTTTCGTAAGACACTTTGGAGGGTTGA [3d136] | 0.0337
ATCACTTGTCTAAGACACTTGGATGGGTTGA [3d178] | 0.73
TATCATGCGTAAGACACTTTGGATGGGTTGA [3d1123] | 0.833
TATCACTGTCGTAAGACCTTGGATGGGTTGA [3d1426] | 0.809
TATCACTTGTCGTAAGACACTGGATGGGTTA [3d2236] | 0.751
TATCCTTGTCGTAAGAACTTTGGATGGGTTG [3d1082] | 0.779
TATCACTTGTCGTAAGACACTTTGGTGGTTA [3d2273] | 0.0182
TATCACTTGTCGTAAGAATTTGGAGGGTTGA [3d2155] | 0.0724
TATCACTTGTCGTAAGACACTTTGGTGGGTT [3d2275] | 0.011
TACACTTGTCGTAGACACTTTGGATGGGTTGA [2d56] | 0.617
TACACTTGTCGAAGACCTTTGGATGGGTTGA [3d650] | 0.1
ATCACTTGTCGTAAGCATTTGGATGGGTTGA [3d223] | 0.731
ACACTTGTCGTAAGACACTTTGGATGGGTTA [3d44] | 0.217
GGTTATCACTTGTCGTAAGACACTTTGGATGTGA [s37] | 0
TTCACTTGTCGTAGACACTTTGGAGGGTTGA [3d438] | 0.149
TTCACTTGTCTAAGAACTTTGGATGGGTTGA [3d406] | 0.349
TATACTTGTCGAAGACACTTTGGATGGGTTGA [2d76] | 0.761
TACACTTGTCGTGACACTTTGGATGGGTTGA [3d659] | 0.0318

Sequence | fraction ligated
ATCACTTGTCGTAAGACCTTTGGATGGGTTGA [2d16] | 0.741
TATACTTGTCGTAAGCATTTGGATGGGTTGA [3d895] | 0.747
TATCACTTTGTAAGCACTTTGGATGGGTTGA [3d1468] | 0.783
TACCTTGTCGTAAGACACTTGGATGGGTTGA [3d540] | 0.746
TATCCTTGTCGTAGACACTTTGGATGGGTTGA [2d96] | 0.79
TATCTTGTCGTAAGACACTTTGGTGGGTTGA [3d753] | 0.563
TATCCTTGCTAAGACACTTTGGATGGGTTGA [3d985] | 0.764
TATCACTTTCGTAAGACCTTTGGATGGTTGA [3d1551] | 0.0784
TATCACTTGTCTAGACACTTTGGATGGGTTA [3d1834] | 0.738
TATCATTGTCGTAAGCCTTTGGATGGGTTGA [3d1238] | 0.798
TTCACTTGCGTAAGACACTTTGGTGGGTTGA [3d382] | 0.00525
TTCACTTGGTAAGACACTTTGGATGGGTTGA [3d371] | 0.708
TATCACTTGTGTAAGACACTTTGATGGGTTG [3d1798] | 0.544
TATCACTTGTCGAAGACACTTGATGGGTTGA [3d1958] | 0.663
TTCACTTGTCGTAAGACCTTTGGAGGGTTGA [3d473] | 0.073
TATCATTGTCGTAAGACACTTTGGATGGTTG [3d1290] | 0.299
TATCCTTGTCGTAAGCACTTTGGTGGGTTGA [3d1070] | 0.0868
TATCACTTGTCGAAACACTTTGGATGGTTGA [3d1922] | 0.0984
TATCACTTGGTAAGACCTTTGGATGGGTTGA [3d1590] | 0.765
TATCACTTGTCTAAACACTTTGGTGGGTTGA [3d1841] | 0.116
TATCACTTGTTAAGACACTTTGGTGGGTTGA [3d1713] | 0.111
TTCACTTGTGTAAGCACTTTGGATGGGTTGA [3d391] | 0.775
TATCACTTGTCGAAGACACTTTGGAGGGTTG [3d1976] | 0.08

Sequence | fraction ligated
TTCACTTGTCGTAAGACACTTTGGAGGGTTA [3d502] | 0.0179
TATACTTGCGTAAGACACTTTGGATGGGTTA [3d826] | 0.0217
TTCTTGTCGTAAGACACTTTGGATGGGTTGA [3d277] | 0.765
TATCCTTGTCGTAAGACACTTTGGATGGTTG [3d1118] | 0.0169
TATCACTTGTCGAAGACACTTTGATGGGTTG [3d1969] | 0.732
TATCACTTGTTAAACACTTTGGATGGGTTGA [3d1706] | 0.842
TATACTTGTCGTAGACACTTTGGATGGGTTGA [2d77] | 0.67
TATCACTTGTCGTAAACATTTGGATGGGTTGA [2d236] | 0.83
TATCCTTGCGTAAGACACTTGGATGGGTTGA [3d993] | 0.75
TCACTTGTGTAAGACACTTTGGATGGGTTGA [3d8] | 0.662
TATCACTTGTCTAAGACACTTTGGAGGTTGA [3d1895] | 0.095
TATACTTGCGTAAGAACTTTGGATGGGTTGA [3d818] | 0.768
TTCACTTTCGTAAGACACTTTGGATGGGTTG [3d370] | 0.184
TATCATTTCGTAGACACTTTGGATGGGTTGA [3d1143] | 0.802
TTCACTTGTGAAGACACTTTGGATGGGTTGA [3d388] | 0.767
TTCACTTGTCGTAAGACACTTGGATGGTTGA [3d488] | 0.161
TATCACTTGTCGTAGACATTTGGAGGGTTGA [3d2031] | 0.0197
TATCACTTGTGTAAACACTTTGGATGGGTTA [3d1752] | 0.805
TACACTTGTCTAGACACTTTGGATGGGTTGA [3d633] | 0.195
TATCACTGTCGTAAGAACTTTGATGGGTTGA [3d1420] | 0.652
TATCACTTGTCGTAAGACATTGGTGGGTTGA [3d2209] | 0.0429
ATACTTGTCGTAGACACTTTGGATGGGTTGA [3d54] | 0.0939
TATCACTTGGTAGACACTTTGGATGGGTTGA [3d1586] | 0.829

Sequence | fraction ligated
TATCCTTGTCGTAGCACTTTGGATGGGTTGA [3d1044] | 0.774
TATACTGTCTAAGACACTTTGGATGGGTTGA [3d781] | 0.651
TATCACTTGTCGTAAGACCTTTGGAGGGTTG [3d2202] | 0.0402
ATCACTTGCGTAAGACACTTTGGATGGGTTG [3d155] | 0.805
TATCACTTGTCGAGACACTTTGGATGGGTTA [3d1913] | 0.765
TTCACTTGTCGTAAGAACTTTGGATGGGTTA [3d468] | 0.0936
TATCCTTGTGTAAGACACTTGGATGGGTTGA [3d1008] | 0.367
TTCACTTTCGTAAGACACTTTGGATGGGTTGA [2d29] | 0.501
TTCACTTGTCGTGACACTTTGGATGGGTTGA [3d429] | 0.255
TTACTTGTCGTAAGACCTTTGGATGGGTTGA [3d289] | 0.229
TATCACTTGTGTAAGACACTTTGATGGTTGA [3d1796] | 0.0289
TTCACTTGTCGTAACACTTTGGATGGGTTGA [3d430] | 0.728
TATCACTTCGTAAACACTTTGGATGGGTTGA [3d1315] | 0.792
ATCCTTTCGTAAGACACTTTGGATGGGTTGA [3d68] | 0.791
TAACTTGTCGTAAGACCTTTGGATGGGTTGA [3d519] | 0.196
TATACTTTCGTAAACACTTTGGATGGGTTGA [3d800] | 0.307
TTCCTTGTCTAAGACACTTTGGATGGGTTGA [3d302] | 0.78
TATCACTTGTCGAAGACACTTTGGTGGGTTG [3d1973] | 0.0779
ATCACTTGTCGAAGAACTTTGGATGGGTTGA [3d188] | 0.805
ACACTTGTCGTAAGACCTTTGGATGGGTTGA [3d37] | 0.627
TATCACTTTCGTAAGAACTTTGGAGGGTTGA [3d1543] | 0.126
TATACTTGTCGTAAACACTTGGATGGGTTGA [3d886] | 0.227
TACCTTGTGTAAGACACTTTGGATGGGTTGA [3d531] | 0.795

Sequence | fraction ligated
TATCTTTCGTAAGACACTTTGGATGGGTTGA [3d740] | 0.837
TATCACTTTGTAAGACACTTTGGATGGTTGA [3d1476] | 0.119
TATCACTTGTGAAGACACTTTGGATGGGTTGA [2d180] | 0.853
TATCACTTGTCGTAAGACATTTGGAGGGTTA [3d2225] | 0.0022
TATACTTGTCTAAGAACTTTGGATGGGTTGA [3d847] | 0.765
TATCACTTGCGTAAGAACTTTGATGGGTTGA [3d1661] | 0.853
TACACTGTCGTAAGAACTTTGGATGGGTTGA [3d575] | 0.162
TATCCTTTCGTAAGACACTTTGATGGGTTGA [3d978] | 0.77
TATCACTTGCGTAAGACACTTTGGAGGTTGA [3d1698] | 0.0604
TATCACTGTCTAAGACACTTTGGATGGGTTGA [2d132] | 0.818
ATCACTTGTCGTAAGAACTTTGGTGGGTTGA [3d234] | 0.0239
TATCACTTGGAAGACACTTTGGATGGGTTGA [3d1585] | 0.823
TATCACTTGTCTAAGACCTTTGGATGGGTTG [3d1870] | 0.755
TTCACTGTCGTAAGCACTTTGGATGGGTTGA [3d344] | 0.8
TATCACTTGTGTAGACCTTTGGATGGGTTGA [3d1735] | 0.845
TATCACTTGTCGTAGACACTTTGGAGGGTTA [3d2053] | 0.0985
TATACTGTCGTAAGACACTTTGATGGGTTGA [3d790] | 0.743
TATCACTTGCGTAAGACCTTTGGATGGGTTA [3d1672] | 0.785
TATACTTGTCGAAGACACTTTGGATGGTTGA [3d867] | 0.0528
TATCACTTGTCTAAGACCTTTGGATGGGTTA [3d1869] | 0.732
